{"source": "the RNAGym collection of RNA variant scans (doi:10.7554/elife.90254)", "parents": {"B1": {"name": "OR4K15 (parent)", "chain": "GUUAACGGUCAUAGGCCAUGGAAACUAGGAGCACCAUUUCGCUGCCAGUGAAGAAAUGAACAAAGAAAAUCUGGGCCAGGCAGGCAUCAAAAGAAAUAGUCUUGCGCUCAACCAGAAAGUCUGUAAUCAUUUUAAGGGUA"}}}
{"variants_of": "B1", "test": "self-cleavage, relative activity (ratio to wild type); higher = more cleavage; in vitro, sequencing; the parent is a self-cleaving ribozyme"}
{"variant": "GUUAACGGUCAUAGGCCAUGGAAACUAGGAGCACCACUUCGCUGCCAGUGAAGAAAUGAACAAAGAAAAUCUGGGCCAGGCAGGCAUCAAAAGAAAUAGUCUUGCGCUCAACCAGAAAGUCCGUAAUCAUUUUAAGGGUA", "note": "[U37C U122C]", "self-cleavage": 1.25}
{"variant": "GUUAACGGUCAUAGGCCAUGGAAACUAGGAGCACCACUUCGCUGCCAGUGAAGAAAUGAACAAAGAAAAUCUGGGCCAGGCAGGCAUCAAAAGAAAUAGUCUUGCGCUCAACCAGAAAGUCUGUAAUCACUUUAAGGGUA", "note": "[U37C U130C]", "self-cleavage": 0.97}
{"variant": "GUUAACGGUCAUAGGCCAUGGAAACUAGGAGCACCACUUCGCUGCCAGUGAAGAAAUGAACAAAGAAAAUCUGGGCCAGGCAGGCAUCAAAAGAAAUAGUCUUGCGCUCAACCAGAAAGUCUGUAAUCAAUUUAAGGGUA", "note": "[U37C U130A]", "self-cleavage": 0.91}
{"variant": "GUUAACGGUCAUAGGCCAUGGAAACUAGGAGCACCAGUUCGCUGCCAGUGAAGAAAUGAACAAAGAAAAUCUGGGCCAGGCAGGCAUCAAAAGAAGUAGUCUUGCGCUCAACCAGAAAGUCUGUAAUCAUUUUAAGGGUA", "note": "[U37G A96G]", "self-cleavage": 1.97}
{"variant": "GUUAACGGUCAUAGGCCAUGGAAACUAGGAGCACCACUUCGCUGCCAGUGAAGAAAUGAACAAAGAAAAUCUGGGCCAGGCAGGCAUCAAAAGAAAUAGUCUUGCGCUCAACCAGAAAGUCUGUAAACAUUUUAAGGGUA", "note": "[U37C U127A]", "self-cleavage": 2.07}
{"variant": "GUUAACGGUCAUAGGCCAUGGAAACUAGGAGCACCACUUCGCUGCCAGUGAAGAAAUGAACAAAGAAAAUCUGGGCCAGGCAGGCAUCAAAAGAAAUAGUCUUGCGCUCAACCAGAAAGUCUGUAACCAUUUUAAGGGUA", "note": "[U37C U127C]", "self-cleavage": 1.08}
{"variant": "GUUAACGGUCAUAGGCCAUGGAAACUAGGAGCACCAUAUCGCUGCCAGUGAAGAACUGAACAAAGAAAAUCUGGGCCAGGCAGGCAUCAAAAGAAAUAGUCUUGCGCUCAACCAGAAAGUCUGUAAUCAUUUUAAGGGUA", "note": "[U38A A56C]", "self-cleavage": 1.55}
{"variant": "GUUAACGGUCAUAGGCCAUGGAAACUAGGAGCACCAUAUCGCUGCCAGUGAGGAAAUGAACAAAGAAAAUCUGGGCCAGGCAGGCAUCAAAAGAAAUAGUCUUGCGCUCAACCAGAAAGUCUGUAAUCAUUUUAAGGGUA", "note": "[U38A A52G]", "self-cleavage": 1.63}
{"variant": "GUUAACGGUCAUAGGCCAUGGAAACUAGGAGCACCACUUCGCUGCCAGUGAAGAAAUGAACAAAGAAAAUCUGGGCCAGGCAGGCAUCAAAAGAAAUAGUCUUGCGCUCAACCAGAAAGUCUGUAAUCAUUAUAAGGGUA", "note": "[U37C U132A]", "self-cleavage": 1.34}
{"variant": "GUUAACGGUCAUAGGCCAUGGAAACUAGGAGCACCACUUCGCUGCCAGUGAAGAAAUGAACAAAGAAAAUCUGGGCCAGGCAGGCAUCAAAAGAAAUAGUCUUGCGCUCAACCAGAAAGUCUGUAAUCAUUCUAAGGGUA", "note": "[U37C U132C]", "self-cleavage": 1.54}
{"variant": "GUUAACGGUCAUAGGCCAUGGAAACUAGGAGCACCAUAUCGCUGCCAGUGAAGGAAUGAACAAAGAAAAUCUGGGCCAGGCAGGCAUCAAAAGAAAUAGUCUUGCGCUCAACCAGAAAGUCUGUAAUCAUUUUAAGGGUA", "note": "[U38A A54G]", "self-cleavage": 0.28}
{"variant": "GUUAACGGUCAUAGGCCAUGGAAACUAGGAGCACCAGUUCGCUGCCAGUGAAGAAAUGAACAAAGAAAAUCUGGGCCAGGCAGGCAUCAAAAGAAAUAGUCUUGCGCUCAACCAGAAGGUCUGUAAUCAUUUUAAGGGUA", "note": "[U37G A118G]", "self-cleavage": 0.99}
{"variant": "GUUAACGGUCAUAGGCCAUGGAAACUAGGAGCACCACUUCGCUGCCAGUGAAGAAAUGAACAAAGAAAAUCUGGGCCAGGCAGGCAUCAAAAGAAAUAGUCUUGCGCUCAACCAGAAAGUCUGUAAUCAUUUUAAGGGCA", "note": "[U37C U139C]", "self-cleavage": 1.72}
{"variant": "GUUAACGGUCAUAGGCCAUGGAAACUAGGAGCACCACUUCGCUGCCAGUGAAGAAAUGAACAAAGAAAAUCUGGGCCAGGCAGGCAUCAAAAGAAAUAGUCUUGCGCUCAACCAGAAAGUCUGUAAUCAUCUUAAGGGUA", "note": "[U37C U131C]", "self-cleavage": 1.15}
{"variant": "GUUAACGGUCAUAGGCCAUGGAAACUAGGAGCACCAUAUCGCUGCCAGUGAAGAAAUGGACAAAGAAAAUCUGGGCCAGGCAGGCAUCAAAAGAAAUAGUCUUGCGCUCAACCAGAAAGUCUGUAAUCAUUUUAAGGGUA", "note": "[U38A A59G]", "self-cleavage": 1.14}
{"variant": "GUUAACGGUCAUAGGCCAUGGAAACUAGGAGCACCAGUUCGCUGCCAGUGAAGAAAUGAACAAAGAAAAUCUGGGCCAGGCAGGCAACAAAAGAAAUAGUCUUGCGCUCAACCAGAAAGUCUGUAAUCAUUUUAAGGGUA", "note": "[U37G U87A]", "self-cleavage": 1.38}
{"variant": "GUUAACGGUCAUAGGCCAUGGAAACUAGGAGCACCAUAUCGCUGCCAGUGGAGAAAUGAACAAAGAAAAUCUGGGCCAGGCAGGCAUCAAAAGAAAUAGUCUUGCGCUCAACCAGAAAGUCUGUAAUCAUUUUAAGGGUA", "note": "[U38A A51G]", "self-cleavage": 1.33}
{"variant": "GUUAACGGUCAUAGGCCAUGGAAACUAGGAGCACCAUAUCGCUGCCAGUGAAGAAAUGAACAAAGAAAAUCUGGGCCAGGCAGGCAUCAAAAGAAAUAGUCUUGCGCUCAACCAGAAAGUCUGUAAUCAUUUUAAGGGUA", "note": "[U38A]", "self-cleavage": 1.44}
{"variant": "GUUAACGGUCAUAGGCCAUGGAAACUAGGAGCACCAGUUCGCUGCCAGUGAAGAAAUGAACAAAGAAAAUCUGGGCCAGGCAGGCAUCAGAAGAAAUAGUCUUGCGCUCAACCAGAAAGUCUGUAAUCAUUUUAAGGGUA", "note": "[U37G A90G]", "self-cleavage": 0.38}
{"variant": "GUUAACGGUCAUAGGCCAUGGAAACUAGGAGCACCAGUUCGCUGCCAGUGAAGAAAUGAACAAAGAAAAUCUGGGCCAGGCAGGCAUCAAAAGAAAUAGUCUUGCGCUCAACCAGAAAGUCUGUAAUCGUUUUAAGGGUA", "note": "[U37G A129G]", "self-cleavage": 1.12}
{"variant": "GUUAACGGUCAUAGGCCAUGGAAACUAGGAGCACCAGUUCGCUGCCAGUGGAGAAAUGAACAAAGAAAAUCUGGGCCAGGCAGGCAUCAAAAGAAAUAGUCUUGCGCUCAACCAGAAAGUCUGUAAUCAUUUUAAGGGUA", "note": "[U37G A51G]", "self-cleavage": 1.31}
